Article PMC7604772 (The Journal of Cell Biology, 2020)
Square brackets hold non-standard residues; d marks the D form. * marks the point of attachment. Biotin = O=C1N[C@H]2[C@H](CS[C@H]2CCCCC(=O)*)N1; pT = C[C@@H](OP(=O)(O)O)[C@H](N)C(=O)O

B1: biotin-integrin phospho-peptide β1-762-798 pTpT (peptide)
peptide: Biotin-EFAKFEKEKMNAKWDTGENPIYKSAV[pT][pT]VVNPKYEGK-OH
SMILES: CC[C@H](C)[C@H](NC(=O)[C@@H]1CCCN1C(=O)[C@H](CC(N)=O)NC(=O)[C@H](CCC(=O)O)NC(=O)CNC(=O)[C@@H](NC(=O)[C@H](CC(=O)O)NC(=O)[C@H](Cc1c[nH]c2ccccc12)NC(=O)[C@H](CCCCN)NC(=O)[C@H](C)NC(=O)[C@H](CC(N)=O)NC(=O)[C@H](CCSC)NC(=O)[C@H](CCCCN)NC(=O)[C@H](CCC(=O)O)NC(=O)[C@H](CCCCN)NC(=O)[C@H](CCC(=O)O)NC(=O)[C@H](Cc1ccccc1)NC(=O)[C@H](CCCCN)NC(=O)[C@H](C)NC(=O)[C@H](Cc1ccccc1)NC(=O)[C@H](CCC(=O)O)NC(=O)CCCC[C@@H]1SC[C@@H]2NC(=O)N[C@@H]21)[C@@H](C)O)C(=O)N[C@@H](Cc1ccc(O)cc1)C(=O)N[C@@H](CCCCN)C(=O)N[C@@H](CO)C(=O)N[C@@H](C)C(=O)N[C@H](C(=O)N[C@H](C(=O)N[C@H](C(=O)N[C@H](C(=O)N[C@H](C(=O)N[C@@H](CC(N)=O)C(=O)N1CCC[C@H]1C(=O)N[C@@H](CCCCN)C(=O)N[C@@H](Cc1ccc(O)cc1)C(=O)N[C@@H](CCC(=O)O)C(=O)NCC(=O)N[C@@H](CCCCN)C(=O)O)C(C)C)C(C)C)[C@@H](C)OP(=O)(O)O)[C@@H](C)OP(=O)(O)O)C(C)C
B2: biotin-integrin peptide β1-762-798 (peptide)
peptide: Biotin-EFAKFEKEKMNAKWDTGENPIYKSAVTTVVNPKYEGK-OH
SMILES: CC[C@H](C)[C@H](NC(=O)[C@@H]1CCCN1C(=O)[C@H](CC(N)=O)NC(=O)[C@H](CCC(=O)O)NC(=O)CNC(=O)[C@@H](NC(=O)[C@H](CC(=O)O)NC(=O)[C@H](Cc1c[nH]c2ccccc12)NC(=O)[C@H](CCCCN)NC(=O)[C@H](C)NC(=O)[C@H](CC(N)=O)NC(=O)[C@H](CCSC)NC(=O)[C@H](CCCCN)NC(=O)[C@H](CCC(=O)O)NC(=O)[C@H](CCCCN)NC(=O)[C@H](CCC(=O)O)NC(=O)[C@H](Cc1ccccc1)NC(=O)[C@H](CCCCN)NC(=O)[C@H](C)NC(=O)[C@H](Cc1ccccc1)NC(=O)[C@H](CCC(=O)O)NC(=O)CCCC[C@@H]1SC[C@@H]2NC(=O)N[C@@H]21)[C@@H](C)O)C(=O)N[C@@H](Cc1ccc(O)cc1)C(=O)N[C@@H](CCCCN)C(=O)N[C@@H](CO)C(=O)N[C@@H](C)C(=O)N[C@H](C(=O)N[C@H](C(=O)N[C@H](C(=O)N[C@H](C(=O)N[C@H](C(=O)N[C@@H](CC(N)=O)C(=O)N1CCC[C@H]1C(=O)N[C@@H](CCCCN)C(=O)N[C@@H](Cc1ccc(O)cc1)C(=O)N[C@@H](CCC(=O)O)C(=O)NCC(=O)N[C@@H](CCCCN)C(=O)O)C(C)C)C(C)C)[C@@H](C)O)[C@@H](C)O)C(C)C

Target: His-Sumo–tagged talin F3 subdomain of the FERM domain (mouse, UniProt P26039 309-411)
Sequence (P26039 309-411): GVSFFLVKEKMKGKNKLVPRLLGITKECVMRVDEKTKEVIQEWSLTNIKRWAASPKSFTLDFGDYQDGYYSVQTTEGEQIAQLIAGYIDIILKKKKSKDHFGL
Assay: pull-down

Binder | binding result
B1 | binds
B2 | binds
